# Results published in the RNAGym collection of RNA variant scans (doi:10.7554/elife.80360).
# B1: HDV Ribozyme (parent)
# chain: GGCCGGCAUGGUCCCAGCCUCCUCGCUGGCGCCGGCUGGGCAACAUUCCGAGGGGACCGUCCCCUCGGUAAUGGCGAAUGGGACCCA
# Variants of: B1
# Experiment: self-cleavage, relative activity (ratio to wild type); higher = more cleavage; co-transcriptional
row,Variant,self-cleavage
1,G39C G74U,0.251
2,C14G A77U,0
3,G25U A43G,0.0573
4,A42G U46G,0.0875
5,G50U C62U,0.95
6,U9A G29U,0.0639
7,G17C C63A,0.306
8,G34A G68A,0.144
9,G1A C22A,0.0831
10,C4U C36U,0.272
11,U27G G73A,0.396
12,A56U C62U,0.847
13,U9A C15G,0.499
14,G1U A45C,0.453
15,U46C A83U,0.554
16,G38A C62A,0.0733
17,C22A C61A,0.415
18,U23G U47A,0.864
19,U12C G81A,0.095
20,C7G U79G,0.104
21,G52U U79A,0.759
22,C15G C86A,0.712
23,A42G A70U,0.365
24,C18A A56U,0.222

row,Variant,self-cleavage
1,G55C G76C,0.943
2,C48U G76C,1.16
3,C44U G50A,0.855
4,U46A A77C,0.119
5,C19A U69G,0.12
6,G59C A71C,0.677
7,C3G G76C,0.65
8,C26A C85U,0.942
9,C14A U72G,0.151
10,G5A A16U,0.356
11,U27C C62U,0.851
12,G31C G82A,0.0563
13,A8U C48A,0.875
14,C33G A71C,0.104
15,G11U G68C,0.297
16,A45G C75G,0.0536
17,C4A C66A,0.177
18,A8G U9C,1.11
19,U23A G38A,0.0963
20,C21A G29U,0
21,C3A C49U,0.777
22,C62U A78G,0.475
23,A45U G54U,0.8
24,G17C G31U,0.0831

row,Variant,self-cleavage
1,G35C C85U,0.308
2,G2U C13A,0
3,G17U G80U,0.156
4,U37A G40C,0.0519
5,G68C C85G,0.733
6,U27C G29U,0.145
7,U27A A70U,0.985
8,G29A C33A,0.104
9,C61A C75U,0.178
10,U69G A83C,0.554
11,A42G G76C,0.672
12,C64A U65A,0.895
13,C64A U65G,0.937
14,G34U G53U,0.223
15,G10C G50A,0.997
16,C57G C86A,0.656
17,C66A A78G,0.538
18,U9C G11C,0.266
19,U37C C44G,0.63
20,G35A A71U,0.389
21,U65A C86U,0.937
22,U20G A43C,0.256
23,G25U G81C,0.0923
24,G28U G39C,0.125

row,Variant,self-cleavage
1,C33A G80C,0.16
2,C64A A70C,0.623
3,C22G G74C,0
4,A16C U20C,0.277
5,C19G G39A,0.032
6,C15G U46C,0.256
7,G25C C32U,0.0755
8,C41U A87G,0.961
9,G11U U23G,0.134
10,A45C G76A,0.869
11,U12A C64G,0.437
12,C18G A45C,0
13,G6A A56U,0.601
14,G40U A71U,0.459
15,G73C C86A,0.641
16,G50U A56C,1.18
17,G52C A71C,0.332
18,C33U C84G,0.628
19,C24A G54U,0.736
20,U20G C48G,0.222
21,C44A C62U,0.723
22,G31U G39U,0.285
23,G34A U37G,0.219
24,G39C C85A,0.203

row,Variant,self-cleavage
1,G34A G52A,0.286
2,C15G C75G,0.192
3,G29U G82U,0.095
4,U23G A42G,0.0665
5,C22A G34A,0.0573
6,C22A G34C,0.0773
7,A71G G76U,1.1
8,G6A G59U,0.755
9,A45C U65C,0.646
10,C41G C58G,0.974
11,G53C A70G,0.962
12,G2A A45G,0.0779
13,G55U G76A,1.17
14,A77U G81A,0.185
15,U23C A42C,0.161
16,U20A C44G,0.111
17,G10U G35U,0.337
18,C33U C36G,0.0665
19,G2U U23C,0.112
20,G17C U37A,0
21,C18A C58U,0.196
22,C22A G74C,0.146
23,G68A A78G,0.727
24,G17U G40A,0.246

row,Variant,self-cleavage
1,G68A A70U,1.12
2,C7A A45U,0.332
3,C30U C84G,0.306
4,G59U G74A,0.46
5,C49A C75U,0.175
6,C13U U72G,0.266
7,C15G G17C,0.0875
8,C30A C49G,0.232
9,G35A G82A,0.265
10,A8U C36G,0.125
11,G25A C84U,0.173
12,C21A A56C,0.0898
13,G28U C49G,0.116
14,G40A G54U,0.971
15,U23G U46C,0.462
16,A77C A83G,0.156
17,C57U A70G,0.967
18,A16U G82A,0.745
19,C3G A43U,0.233
20,G34A U47C,0
21,G40C C86G,0.222
22,C15A C24A,0.378
23,G31U C33G,0.0639
24,U60G A71C,1.21

row,Variant,self-cleavage
1,G40A U60A,1
2,U23A U79C,0.369
3,U23C C63U,0.984
4,C58U C84A,1.02
5,C14G C36A,0.192
6,G10A C15G,0.166
7,A51G C86A,1.16
8,C13U U69A,0.8
9,A71G G80U,0.196
10,C24U G38C,0.0554
11,G34U C75A,0.107
12,C61G C66G,0.745
13,C13A,0.21
14,C36U C58U,0.866
15,C14A G25A,0.141
16,A43G G67U,0.527
17,A8U C24A,0.208
18,C24A C44G,0.256
19,C33A G50C,0.203
20,U60C A83U,0.653
21,C61U,1.01
22,C41G A77C,0.222
23,C44A G68C,0.764
